Read-outs that look alike come from different tables or passages of the source.
Legend:
[1] = molecular target: T1, hIL-1R3-His (extracellular domain of human IL-1R3 with C-terminal His tag) (human (homo sapiens), UniProt Q9NPH3 21-359); assay: SPR (Biacore T200), antibody captured by anti-human Fc, hIL-1R3-His as analyte, 1:1 model
T1 sequence: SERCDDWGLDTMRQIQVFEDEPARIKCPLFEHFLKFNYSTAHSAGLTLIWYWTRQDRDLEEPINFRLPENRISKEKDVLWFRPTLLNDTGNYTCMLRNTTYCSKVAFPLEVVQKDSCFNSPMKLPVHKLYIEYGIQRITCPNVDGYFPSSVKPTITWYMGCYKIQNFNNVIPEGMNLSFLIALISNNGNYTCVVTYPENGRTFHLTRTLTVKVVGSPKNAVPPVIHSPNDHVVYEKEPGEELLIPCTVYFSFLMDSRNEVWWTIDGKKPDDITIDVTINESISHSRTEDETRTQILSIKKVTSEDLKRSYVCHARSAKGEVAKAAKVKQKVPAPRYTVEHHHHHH

[2] = molecular target: T1, hIL-1R3-His (extracellular domain of …); assay: as above; remark: listed apart in the source
[3] = molecular target: T2, human IL-36R on the cell surface (HEK-Blue IL-36 cells, HaCAT cells, human CD14+ monocytes) (human, UniProt Q9HB29 20-575); assay: cell-based or functional assay
T2 sequence (looked up): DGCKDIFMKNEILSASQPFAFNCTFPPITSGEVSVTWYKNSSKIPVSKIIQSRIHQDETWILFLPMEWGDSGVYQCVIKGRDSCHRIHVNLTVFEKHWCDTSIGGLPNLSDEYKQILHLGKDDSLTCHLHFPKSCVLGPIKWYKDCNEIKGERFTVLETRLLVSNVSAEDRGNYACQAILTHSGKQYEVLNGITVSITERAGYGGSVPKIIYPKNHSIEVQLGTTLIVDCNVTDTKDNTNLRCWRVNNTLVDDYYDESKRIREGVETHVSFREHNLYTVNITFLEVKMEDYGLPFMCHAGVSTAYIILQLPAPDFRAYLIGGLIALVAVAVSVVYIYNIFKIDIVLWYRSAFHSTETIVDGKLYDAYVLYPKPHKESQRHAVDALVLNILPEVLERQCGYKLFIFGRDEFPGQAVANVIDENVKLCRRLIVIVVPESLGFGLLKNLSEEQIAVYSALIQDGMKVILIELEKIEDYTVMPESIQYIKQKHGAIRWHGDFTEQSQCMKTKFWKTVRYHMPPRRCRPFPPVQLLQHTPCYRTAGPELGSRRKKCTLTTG

[4] = molecular target: T2, human IL-36R on the cell surface …; assay: cell-based or functional assay; remark: listed apart in the source
[5] = molecular target: T3, hIL-36R-His (extracellular domain of human IL-36R with C-terminal His tag) (human (homo sapiens), UniProt Q9HB29 20-335); assay: SPR (Biacore T200), antibody captured by anti-human Fc, hIL-36R-His as analyte, 1:1 model
T3 construct: also called human hIL-36R-His
T3 sequence: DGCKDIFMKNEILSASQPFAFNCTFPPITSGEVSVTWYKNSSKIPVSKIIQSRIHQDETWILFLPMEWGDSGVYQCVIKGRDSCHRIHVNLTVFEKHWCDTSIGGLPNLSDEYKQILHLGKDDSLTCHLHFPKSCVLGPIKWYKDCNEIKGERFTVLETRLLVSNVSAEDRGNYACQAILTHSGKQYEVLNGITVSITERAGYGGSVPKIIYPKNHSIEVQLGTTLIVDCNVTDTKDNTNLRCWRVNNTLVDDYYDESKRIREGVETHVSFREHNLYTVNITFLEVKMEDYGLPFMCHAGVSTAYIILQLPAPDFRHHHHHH

[6] = molecular target: T2, human IL-36R on the cell surface …; assay: cell-based or functional assay; remark: listed apart in the source
[7] = molecular target: T3, hIL-36R-His (extracellular domain of …); assay: SPR (Biacore T200), antibody captured by anti-human Fc, hIL-36R-His as analyte, 1:1 model; remark: listed apart in the source
[8] = molecular target: T2, human IL-36R on the cell surface …; assay: cell-based or functional assay; remark: listed apart in the source
[9] = molecular target: T1, hIL-1R3-His (extracellular domain of …); assay: SPR (Biacore T200), antibody captured by anti-human Fc, hIL-1R3-His as analyte, 1:1 model; remark: listed apart in the source
[10] = molecular target: T3, hIL-36R-His (extracellular domain of …); assay: SPR (Biacore T200), antibody captured by anti-human Fc, hIL-36R-His as analyte, 1:1 model; remark: listed apart in the source

B1: R1B9 (mouse anti-human IL-1R3 monoclonal antibody) (antibody, V domains shown)
VH: EVKLVESGGGLVKPGGSLKLSCAASGFTFSSYAMSWVRQSPEKRLEWVAEISRGGSHTYYPDTVTGRFTISRDNAKNTLYLEMTSLRSEDTALYYCARSYGNYPFDYWGQGTTLTVSS
VL: DIVMTQSPAIMSASPGEKVTMTCSASSSVSYMYWYQQKPGSSPRLLIYDTSNLASGVPVRFSGSGSGTSYSLTISRMEAEDAATYYCQQWSSYPLTFGAGTKLEIK
notes: Found as a mouse scFv on phage; it was captured by anti-human IgG (Fc) in SPR and detected with anti-human IgG-FITC, which points to a human Fc; also called mouse IL-1R3 monoclonal antibody R1B9; parent R1B9
In the case of B1, the Kd [1] is reported as 1.24 nM, the koff [1] is reported as 9.32e-05 s⁻¹ and the kon [1] is reported as 75000 M⁻¹ s⁻¹. It also gave a Kd [2] of 1.07 nM, a koff [2] of 0.00011 s⁻¹ and a kon [2] of 103000 M⁻¹ s⁻¹.

B2: R49E11VH-h3+L26B11VK (antibody, V domains shown)
VH: QVQLVQSGAEVKKPGASVKVSCKASGYSFTSSWIHWVRQAPGQGLEWMGEINPGSGRSNYNENFQGRVTMTVDTSISTAYMELSRLRSDDTAVYYCTVVFYGEPYFPFWGQGTLVTVSS
VL: EIVLTQSPGTLSLSPGERATLSCRASQSVIYSYLAWYQQKPGQAPRLLIYSASKRASGIPDRFSGSGSGTDFTLTISRLEPEDFAVYYCQQHAGIPVTFGQGTKVEIK
notes: Found as a Fab on phage; also called anti-human IL-36R monoclonal antibody; IL-36R monoclonal antibody
B2 was tested, and the “IC50 for inhibiting IL-36γ-induced hIL-8 secretion by human monocytes” value [3] was 0.0677 nM, the “IC50 for inhibiting IL-36α from inducing hIL-8 secretion by HaCAT cells” value (shortened to “IC50 for inhibiting IL-36α”) [4] was 0.0533 nM and the “IC50 for inhibiting IL-36β from inducing hIL-8 secretion by HaCAT cells” value (from here on “IC50 for inhibiting IL-36β”) [4] was 0.276 nM. The “IC50 for inhibiting IL-36γ from inducing hIL-8 secretion by HaCAT cells” value (“IC50 for inhibiting IL-36γ … by HaCAT cells” for short) [4] was 1.9 nM, the Kd [5] was 1.76 nM and the koff [5] was 6.83e-05 s⁻¹. The kon [5] was 38900 M⁻¹ s⁻¹, the “IC50 for inhibiting IL-36α” value [6] was 0.0559 nM and the “IC50 for inhibiting IL-36β” value [6] was 0.28 nM. For the same binder, the “IC50 for inhibiting IL-36γ … by HaCAT cells” value [6] was 1.58 nM, the Kd [7] was 2.9 nM and the koff [7] was 6.63e-05 s⁻¹. It also gave a kon [7] of 22800 M⁻¹ s⁻¹.

B3: Common light chain bispecific antibody (R72B7VH/R1B9VH-h1+L36E9VK) (bispecific antibody, human IgG1, kappa)
heavy 1: QVQLVQSGAEVKKPGASVKVSCKASGYSFTSSWIHWVKQAPGQGLEWMGEINPGNVRSNYNENFRNKVTMTVDTSISTAYMELSRLRSDDTAVYYCTVINYGEPYFASWGQGTLVTVSSASTKGPSVFPLAPSSKSTSEGTAALGCLVKDYFPEPVTVSWNSGALTSGVHTFPAVLQSSGLYSLSSVVTVPSSSLGTQTYICNVDHKPSNTKVDKTVEPKSCDKTHTCPPCPAPEFEGGPSVFLFPPKPKDTLMISRTPEVTCVVVDVSQEDPEVQFNWYVDGVEVHNAKTKPREEQYNSTYRVVSVLTVLHQDWLNGKEYKCKVSNKALPASIEKTISKAKGQPREPQVCTLPPSQEEMTKNQVSLSCAVKGFYPSDIAVEWESNGQPENNYKTTPPVLDSDGSFFLVSKLTVDKSRWQEGNVFSCSVMHEALHNHYTQKSLSLSPGK
heavy 2: EVQLVESGGGLVQPGGSLRLSCAASGFTFSSYAMSWVRQAPGKGLVWVAEISRGGSHTYYPDTVTGRFTISRDNAKNTLYLQMNSLRAEDTAVYYCARSYGNYPFDYWGQGTTVTVSSASTKGPSVFPLAPSSKSTSGGTAALGCLVKDYFPEPVTVSWNSGALTSGVHTFPAVLQSSGLYSLSSVVTVPSSSLGTQTYICNVNHKPSNTKVDKRVEPKSCDKTHTCPPCPAPEFEGGPSVFLFPPKPKDTLMISRTPEVTCVVVDVSHEDPEVKFNWYVDGVEVHNAKTKPREEQYNSTYRVVSVLTVLHQDWLNGKEYKCKVSNKALPASIEKTISKAKGQPREPQVYTLPPCREEMTKNQVSLWCLVKGFYPSDIAVEWESNGQPENNYKTTPPVLDSDGSFFLYSKLTVDKSRWQQGNVFSCSVMHEALHNHYTQKSLSLSPGK
light: EIVLTQSPGTLSLSPGERATLSCRASQSVIGSYLAWYQQKPGQAPRLLIYSASKLASGIPDRFSGSGSGTDFTLTISRLEPEDFAVYYCQQDTRYPITFGQGTKVEIKRTVAAPSVFIFPPSDEQLKSGTASVVCLLNNFYPREAKVQWKVDNALQSGNSQESVTEQDSKDSTYSLSSTLTLSKADYEKHKVYACEVTHQGLSSPVTKSFNRGEC
notes: also called IL-36R×IL-1R3 common light chain bispecific antibody; R72B7/R1B9VH-h1+L36E9VK
In the case of B3, the “fold increase of activity by IC50 against Spesolimab, IL-36α, HaCAT hIL-8 secretion” value [8] is reported as roughly 12 fold, the “fold increase of activity by IC50 against Spesolimab, IL-36β, HaCAT hIL-8 secretion” value [8] is reported as roughly 4 fold and the “fold increase of activity by IC50 against Spesolimab, IL-36γ, HaCAT hIL-8 secretion” value [8] is reported as roughly 15 fold. The “fold increase of activity by IC50 against Spesolimab, IL-36γ, hIL-8 secretion by human monocytes” value [8] was roughly 17 fold, the Kd [9] was 1.44 nM and the koff [9] was 5.53e-05 s⁻¹. For the same binder, the kon [9] was 38400 M⁻¹ s⁻¹, the “IC50 for inhibiting IL-36γ-induced hIL-8 secretion by human monocytes” value [3] was 0.00171 nM and the Kd [10] was 1.29 nM. The koff [10] was 3.98e-05 s⁻¹, the kon [10] was 30700 M⁻¹ s⁻¹ and the “IC50 for inhibiting IL-36α” value [6] was 0.00797 nM. For the same binder, the “IC50 for inhibiting IL-36β” value [6] was 0.027 nM and the “IC50 for inhibiting IL-36γ … by HaCAT cells” value [6] was 0.0453 nM.

Reference: patent publication EP4660205A1 (Beijing Wisdomab Biotechnology Co., Ltd, dated 2025)
